Values of other authors as cited in publication PMC3022542.
Like-named read-outs stand apart in the source and are kept apart here.

Assays:
[1] = target: importin α5 (Homo sapiens) (UniProt P52294); assay: isothermal titration calorimetry
[2] = target: importin α5 (Homo sapiens) (UniProt P52294); assay: isothermal titration calorimetry; remark: listed apart in the source

Sequence of UniProt P52294 (P52294 whole entry): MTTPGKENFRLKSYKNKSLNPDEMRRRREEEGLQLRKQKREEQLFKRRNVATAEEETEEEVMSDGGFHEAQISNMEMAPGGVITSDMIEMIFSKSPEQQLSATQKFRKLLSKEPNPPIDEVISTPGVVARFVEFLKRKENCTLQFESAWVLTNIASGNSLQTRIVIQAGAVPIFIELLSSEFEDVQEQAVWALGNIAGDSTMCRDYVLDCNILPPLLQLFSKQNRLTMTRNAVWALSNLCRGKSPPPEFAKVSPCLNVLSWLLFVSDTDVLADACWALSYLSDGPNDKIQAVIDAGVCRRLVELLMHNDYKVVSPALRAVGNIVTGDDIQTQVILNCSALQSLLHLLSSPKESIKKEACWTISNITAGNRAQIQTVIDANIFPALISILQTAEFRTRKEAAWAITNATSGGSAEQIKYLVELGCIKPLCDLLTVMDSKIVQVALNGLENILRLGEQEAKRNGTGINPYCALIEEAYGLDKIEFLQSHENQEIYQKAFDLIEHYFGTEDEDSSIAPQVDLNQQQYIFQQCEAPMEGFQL

EBNA-1 NLS peptide NLS (from UniProt P03211)
Kd [1]: 60 µM
Kd [2]: 3 µM
